From patent US20250074980A1 (BRIGHAM AND WOMEN S HOSPITAL, published 2025) come the findings set out here.

The labels stand for the following.
B1: VH1/Vκ0 (antibody, IgG4, V domains shown)
VH: EVQLLESGGGLVQPGGSLRLSCAASGFIFSSHGMSWVRQAPGKGLEWVATISSGGTYTYYPDSVKGRFTISRDNSKNTLYLQMNSLKAEDTAMYYCARHDFDYDAAWFAYWGQGTLVTVSS
VL: QIVLTQSPALMSASPGVKVTMTCSANSSVSYMYWYRQKPRSSPKPWIYLTSNLASGVPARFSGSGSGTSYSLTISSMEAEDAATYYCQQWSSNPPTFGSGTKLEIK
notes: IgG4 (S241P), kappa; also called VH1/Vκ0 (control)
B2: VH0/Vκ1 (antibody, IgG4, V domains shown)
VH: B1 VH with L5V, G10D, Q13K, R19K, S21A, A40T, G42D, G44R, S75D, A88S
VL: QIVLTQSPALLSLSPGERATMSCSANSSVSYMYWYRQKPGQAPKPWIYLTSNLASGVPARFSGSGSGTDYTLTISSLEAEDFATYYCQQWSSNPPTFGQGTKLEIK
notes: IgG4 (S241P), kappa; also called VH0/Vκ1 (control)
B3: VH1/CP08G09 (antibody, IgG4, V domains shown)
VH: B1 VH
VL: EIVLTQSPATLSLSPGERATLSCRANSAVSYMYWYQQKPGQAPRPWIYLTSNRATGVPARFSGSGSGTDYTLTISSLEPEDFAVYYCQQWTAFPPTFGQGTKLEIK
notes: IgG4 (S241P), kappa; also called Parent VH/CP08G09
B4: 9B3_9E5/Vκ8 S29A (antibody, IgG4, V domains shown)
VH: B1 VH with I28T, S30N, S31A, G33A, M34I, D100G
VL: B3 VL with T91S, A92S, F93N
notes: IgG4 (S241P), kappa
B5: 8H3_9C2/CP08E05 (antibody, IgG4, V domains shown)
VH: B1 VH with G26E, I28T, S31D, G33A, D100G, D104F, A105P, A106Y, Y110H
VL: B3 VL with A92T, F93N
notes: IgG4 (S241P), kappa
B6: 9B3_9E5_8H3/CP08F05 (antibody, IgG4, V domains shown)
VH: B1 VH with I28T, S30N, S31A, G33A, M34I, D100G, D104F, A105P, A106Y, Y110H
VL: B3 VL with A92S, F93N
notes: IgG4 (S241P), kappa
B7: 9B3_9E5_8H3/Vκ8 S29A (antibody, IgG4, V domains shown)
VH: B1 VH with I28T, S30N, S31A, G33A, M34I, D100G, D104F, A105P, A106Y, Y110H
VL: B3 VL with T91S, A92S, F93N
notes: IgG4 (S241P), kappa
B8: 8H3_9E5/CP08F05 (antibody, IgG4, V domains shown)
VH: B1 VH with D100G, D104F, A105P, A106Y, Y110H
VL: B3 VL with A92S, F93N
notes: IgG4 (S241P), kappa
B9: 9B3_9E5_8H3/CP08E05 (antibody, IgG4, V domains shown)
VH: B1 VH with I28T, S30N, S31A, G33A, M34I, D100G, D104F, A105P, A106Y, Y110H
VL: B3 VL with A92T, F93N
notes: IgG4 (S241P), kappa
B10: 8H3_9C2/Vκ8 S29A (antibody, IgG4, V domains shown)
VH: B1 VH with G26E, I28T, S31D, G33A, D100G, D104F, A105P, A106Y, Y110H
VL: B3 VL with T91S, A92S, F93N
notes: IgG4 (S241P), kappa
B11: 9B3_9E5/CP08F05 (antibody, IgG4, V domains shown)
VH: B1 VH with I28T, S30N, S31A, G33A, M34I, D100G
VL: B3 VL with A92S, F93N
notes: IgG4 (S241P), kappa
B12: 8H3_9C2 (CDR1)/Vκ8 S29A (antibody, IgG4, V domains shown)
VH: B1 VH with G26E, I28T, S31D, G33A, D104F, A105P, A106Y, Y110H
VL: B3 VL with T91S, A92S, F93N
notes: IgG4 (S241P), kappa
B13: 8H3_9C2 (CDR1)/CP08E05 (antibody, IgG4, V domains shown)
VH: B1 VH with G26E, I28T, S31D, G33A, D104F, A105P, A106Y, Y110H
VL: B3 VL with A92T, F93N
notes: IgG4 (S241P), kappa
B14: 8H3_9E5/CP08E05 (antibody, IgG4, V domains shown)
VH: B1 VH with D100G, D104F, A105P, A106Y, Y110H
VL: B3 VL with A92T, F93N
notes: IgG4 (S241P), kappa
B15: 8H3_9C2 (CDR1)/CP08F05 (antibody, IgG4, V domains shown)
VH: B1 VH with G26E, I28T, S31D, G33A, D104F, A105P, A106Y, Y110H
VL: B3 VL with A92S, F93N
notes: IgG4 (S241P), kappa
B16: 8H3_9E5/Vκ8 S29A (antibody, IgG4, V domains shown)
VH: B1 VH with D100G, D104F, A105P, A106Y, Y110H
VL: B3 VL with T91S, A92S, F93N
notes: IgG4 (S241P), kappa

Numbering of substitutions follows the chain as printed. Names may count otherwise.

The target in the first assay is T1, His-tagged CEACAM1 (human, UniProt P13688 35-428).
T1 construct: 45 kDa SPR analyte; also called CEACAM1-HIS; CEACAM1 analyte
T1 sequence: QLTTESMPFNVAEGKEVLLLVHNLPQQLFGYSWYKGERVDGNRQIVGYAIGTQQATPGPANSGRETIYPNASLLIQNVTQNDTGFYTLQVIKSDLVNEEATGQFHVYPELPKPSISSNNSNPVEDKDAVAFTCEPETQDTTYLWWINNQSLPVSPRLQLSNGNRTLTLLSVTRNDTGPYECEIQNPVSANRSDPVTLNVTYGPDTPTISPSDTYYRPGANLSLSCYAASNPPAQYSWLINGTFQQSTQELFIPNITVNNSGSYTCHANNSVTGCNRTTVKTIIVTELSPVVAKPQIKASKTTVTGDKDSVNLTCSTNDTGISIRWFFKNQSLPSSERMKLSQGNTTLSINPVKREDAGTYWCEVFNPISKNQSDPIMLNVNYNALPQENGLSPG
Description: SPR single-cycle, IgG captured. As for the experimental part:
As an alternative approach to assess the binding of the 36 antibody combinations and the three control antibodies to CEACAM1, a kinetic analysis was performed on a Biacore T200 (serial no. 1909913) running Biacore T200 Evaluation Software V2.0.1 (Uppsala, Sweden). All experiments were run at 25° C. with HBS-P+ running buffer (pH 7.4) (GE Healthcare, cat. no. BR100671). All kinetic experiments were performed using His-tagged CEACAM1 as the analyte. For all experiments, antibodies were immobilized onto a Series S Protein A sensor chip surface. For kinetic experiments, the amount of immobilized/captured ligand was limited to avoid mass transfer effects at the surface of the chip with the surface ideally having an analyte binding level (Rₘₐₓ) of 50-150 RUs. Using a MW of 45 kDa for the CEACAM1 analyte, 150 kDa for the antibody ligand (estimated value for IgG), 50 RU for Rmax and the stoichiometry (Sm) as 2 due to the ability of each antibody to bind 2 target molecules, a target response level of ˜75 RUs was set for capture of all the sample antibodies.
Single cycle analysis of the 36 antibody combinations and the three control antibodies was performed on purified antibodies (Vκ1 to Vκ6 variants) or on the supernatants of the transiently transfected HEK EBNA cells (Vκ7 to Vκ12 variants). In some instances, where supernatant was not available, purified chimeric antibody VH0/Vκ0 was spiked into HEK EBNA culture medium to use as a positive control. Antibodies were diluted in HBS-P+ to a concentration of 1 μg/ml (as determined by an IgG quantitation ELISA). At the start of each cycle, antibodies were loaded onto Fc2, Fc3 and Fc4 of a protein A chip and IgG captured at a flow rate of 8 μl/min to give an RU of ˜75. The surface was then allowed to stabilize. Single cycle kinetic data was obtained at a flow rate of 50 μl/min to minimize any potential mass transfer effects. Multiple repeats of the chimeric antibody VH0/Vκ0 were performed to check the stability of the surface and analyte over the kinetic cycles. The signal from the reference channel Fc1 (no antibody) was subtracted from that of Fc2, Fc3 and Fc4 to correct for differences in non-specific binding to a reference surface. A 5 point 2-fold dilution range from 3.125 to 50 nM CEACAM1 without regeneration between each concentration was used.
For B1, the Kd was determined as 64 nM and the “relative KD to VH0/Vκ0” value was found to be 1.5.
With B2, the Kd amounted to 49 nM and the “relative KD to VH0/Vκ0” value stood at 1.2.

Another assay deals with T1, His-tagged CEACAM1. As to the kind of experiment: SPR single-cycle, supernatant IgG captured. As for the experimental part: (§1) In order to assess the binding of the humanized, affinity matured reformatted lead IgGs, single-cycle kinetics analysis was performed on crude supernatants using a Biacore T200 running Biacore T200 Control Software V2.0.1 and Biacore T200 Evaluation Software V3.0. Antibodies were diluted in HBS-P+ to a final concentration of 0.5 μg/ml. At the start of each cycle, antibodies were loaded onto Fc2, Fc3 and Fc4 of the Protein A chip. IgGs were captured at a flow rate of 10 μl/min to give an immobilisation level (RL) of ˜100 RU (a level calculated to obtain a Rₘₐₓ of ˜50-150 RU once the analyte is bound). The surface was then allowed to stabilize. Single-cycle kinetics data was obtained with CEACAM1 as the analyte at a flow rate of 80 μl/min to minimize any potential mass transfer effects. Multiple repeats with the parent (VH1/Vκ8 S29A) antibody were performed to check the stability of the surface and analyte over the kinetic cycles. The signal from the reference channel Fc1 (no antibody) was subtracted from that of Fc2, Fc3 and Fc4 to correct for differences in non-specific binding to the reference surface. A three point, two-fold dilution range from 70 nM to 280 nM CEACAM1 without regeneration between each concentration was used. The signal from each antibody blank run (no CEACAM1) was subtracted to correct for differences in surface stability. The association phase for the three injections of increasing concentrations of CEACAM1 was monitored for 80 seconds each time and a single dissociation phase was measured for 150 seconds following the last injection of CEACAM1. Regeneration of the Protein A surface was conducted using two injections of 10 mM glycine-HCL pH 1.5 followed by a stabilization period of 250 seconds.
Take B3: the Kd came to 110 nM, the koff was 0.049 s⁻¹, the kon was 470000 M⁻¹ s⁻¹ and the “relative KD to parent” value came to 5.9.

Another assay has as its target T1, His-tagged CEACAM1. As to the kind of experiment: SPR single-cycle, supernatant IgG captured. This is another data set of the same source. As for the experimental part: as §1
As for B4, the Kd worked out at 150 nM, the koff was 0.021 s⁻¹, the on-rate (kon) came out at 140000 M⁻¹ s⁻¹ and the “relative KD to parent” value was determined as 3.8.
On the same counts, the results for B5 are 110 nM, 0.0071 s⁻¹, 67000 M⁻¹ s⁻¹ and 5.3.
Consider B6, for which the affinity, expressed as Kd, was 210 nM; the dissociation rate constant (koff) is 0.018 s⁻¹; the association rate constant (kon) amounted to 86000 M⁻¹ s⁻¹; the “relative KD to parent” value is 2.4.
On the same counts, the results for B7 are 210 nM, 0.02 s⁻¹, 95000 M⁻¹ s⁻¹ and 2.4.
For the molecule B8, the affinity, expressed as Kd, was 280 nM; the koff was 0.028 s⁻¹; the kon amounted to 77000 M⁻¹ s⁻¹; the “relative KD to parent” value was found to be 2.
The matching figures for B9: 270 nM, 0.022 s⁻¹, 82000 M⁻¹ s⁻¹ and 1.9.
Turning to B10, the affinity, expressed as Kd, was 110 nM; the koff turned out to be 0.0071 s⁻¹; the kon worked out at 65000 M⁻¹ s⁻¹; the “relative KD to parent” value stood at 5.1.
As to B11, the Kd came out at 95 nM, the koff came out at 0.012 s⁻¹, the kon amounted to 130000 M⁻¹ s⁻¹ and the “relative KD to parent” value amounted to 5.9.
On the same counts, the results for B12 are 210 nM, 0.018 s⁻¹, 88000 M⁻¹ s⁻¹ and 2.7.
On to B13, for which the Kd turned out to be 250 nM, the koff amounted to 0.019 s⁻¹, the kon worked out at 73000 M⁻¹ s⁻¹ and the “relative KD to parent” value was found to be 2.2.
On the same counts, the results for B14 are 320 nM, 0.025 s⁻¹, 79000 M⁻¹ s⁻¹ and 1.8.
On the same counts, the results for B15 are 240 nM, 0.017 s⁻¹, 72000 M⁻¹ s⁻¹ and 2.3.
Turning to B16, binding was put at a Kd of 300 nM, the koff is 0.024 s⁻¹, the kon was 81000 M⁻¹ s⁻¹ and the “relative KD to parent” value came to 1.9.

The target of the next assay is T1, His-tagged CEACAM1. Description: SPR single-cycle, supernatant IgG captured. This is another data set of the same source. The method in brief: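 IgG came from supernatants of HEK EBNA cells transiently transfected by PEI in 6-well plates and harvested 5-7 days later. Supernatants were quantified by ELISA and filtered. Single-cycle surface plasmon resonance was run on a Biacore T200 at 25° C in HBS-P+ (pH 7.4), with IgG captured on Protein A and His-tagged CEACAM1 as analyte. Kon, koff and Kd were fitted, and relative KD was calculated against the parent antibody assayed in the same experiment.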
Take B3: binding was put at a Kd of 480 nM, the koff came out at 0.057 s⁻¹, the kon was determined as 120000 M⁻¹ s⁻¹ and the “relative KD to parent” value came to 1.2.
